This note sets out measurements from patent US20220259278A1 (PROGEN, published 2022).

For one test, the target named is T1, human CD154 (human, UniProt P29965 113-261, limits assumed).
T1 construct: Coupled to amine reactive (AR2G) biosensors at 5 ug/ml; also called hCD154; CD40L
T1 sequence (looked up): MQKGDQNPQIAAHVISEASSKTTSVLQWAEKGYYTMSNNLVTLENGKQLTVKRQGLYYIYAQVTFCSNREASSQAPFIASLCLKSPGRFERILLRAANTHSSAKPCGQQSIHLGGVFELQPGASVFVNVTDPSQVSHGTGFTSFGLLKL
The test is described as follows: BLI (Octet K2), CD154 amine-coupled to AR2G sensor, antibody in solution; average. As to the method: To this end, the present inventors first attached CD154 protein to 96-well plates using Dip and Read™ Amine Reactive 2nd Generation (AR2G) Reagent Kit (forteBio, Cat No. 18-5092). Specifically, after dispensing 200 μl of DW in a 96-well plate, an amine biosensor included in the kit was inserted and hydrated for 10 minutes. Subsequently, after dispensing 200 μl of DW was additionally to the plate, EDC:NHS was mixed in a 1:1 ratio in a volume corresponding to 1/20 of the required sample, then diluted in DW, and 200 μl was dispensed into the 96-well plate. Subsequently, CD154 protein was diluted to 5 μg/ml in 10 mM acetate solution (pH 6.0), and 200 μl was dispensed into the 96-well plate. Then, 200 μl of 1 M ethanolamine was added to the 96-well plate, and the biosensor plate and the sample plate were inserted into Octet® K2 BLI analyzer and signals were measured. After the measurement was completed, 200 μl of the 1× Kinetics buffer was added to the sample plate, and then a baseline was determined.

A further test addresses T2, Fc gamma receptor IIIa (UniProt P08637 17-208).
T2 construct: also called FcγRIIIa
Kind of test: BLI, fitting view, three repeats.

For a further test, the target named is T3, Fc gamma receptor I (UniProt P12314 16-288, limits assumed).
T3 construct: also called FcγRI
The test is described as follows: BLI, fitting view, three repeats.

T2 sequence (P08637 17-208 limits assumed): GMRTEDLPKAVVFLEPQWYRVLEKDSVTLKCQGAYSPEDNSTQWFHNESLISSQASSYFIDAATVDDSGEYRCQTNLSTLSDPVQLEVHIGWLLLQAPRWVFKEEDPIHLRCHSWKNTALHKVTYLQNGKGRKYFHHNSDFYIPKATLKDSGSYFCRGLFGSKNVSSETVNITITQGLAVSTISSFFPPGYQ
T3 sequence (P12314 16-288 limits assumed): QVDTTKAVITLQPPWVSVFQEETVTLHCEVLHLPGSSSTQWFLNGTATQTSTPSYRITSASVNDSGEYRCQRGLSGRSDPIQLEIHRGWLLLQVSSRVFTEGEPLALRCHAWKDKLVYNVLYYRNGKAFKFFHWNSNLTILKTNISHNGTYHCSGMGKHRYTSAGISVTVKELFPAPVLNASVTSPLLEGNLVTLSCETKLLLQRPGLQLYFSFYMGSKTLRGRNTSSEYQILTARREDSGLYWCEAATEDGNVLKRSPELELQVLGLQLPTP

B1: chimeric anti-CD154 antibody C10M (antibody, V domains shown, not shown: a dimerising Fc or GST)
VH: EVQLQQSGSELVKPGASVKLSCKASGYIFTSYYMYWVKQRPGQGLEWIGEINPSNGDTNFNEKFKSKATLTVDKSSSTAYMQLISLTSEDSAVYYCTRSDGRNDMDSWGQGTTVTVSS
VL: DIQLTQSPASLAVSLGQRATISCRASQRVSSSTYSYMHWYQQKPGQPPKLLIKYASNLESGVPARFSGSGSGTDFTLNIHPVEEEDSATYYCQHSWEIPPTFGGGTKLEIKR
notes: Mouse-derived anti-CD154 Fab with a mutant human IgG1 Fc region; also called anti-CD154 chimeric antibody
Turning to B1, in the test with human CD154, the koff is under 1e-07 s⁻¹ and the kon came out at 510000 M⁻¹ s⁻¹.

B2: chimeric hybrid antibody PG-400-1 (antibody, V domains shown)
VH: EVQLQQSGSELVKPGASVKLSCKASGYIFTSYYMYWVKQRPGQGLEWIGEINPSNGDTNFNEKFKSKATLTVDKSSSTAYMQLISLTSEDSAVYYCTRSDGRNDMDSWGQGTTVTVSS
VL: DIQLTQSPASLAVSLGQRATISCRASQRVSSSTYSYMHWYQQKPGQPPKLLIKYASNLESGVPARFSGSGSGTDFTLNIHPVEEEDSATYYCQHSWEIPPTFGGGTKLEIKR
For B2, in the test with human CD154, the koff is under 1e-07 s⁻¹ and the association rate constant (kon) was 807000 M⁻¹ s⁻¹.

B3: GLP-1E-Fc fusion protein PG-11 (Fc fusion)
chain: HGEGTFTSDVSSYLEGQAAKEFIAWLVKGGPSSGAPPPSGGGGSGGGGSGGGGSEKEKEEQEERTHTCPPCPSHTQPLGVFLFPPKPKDQLMISRTPEVTCVVVDVSQEDPEVQFNWYVDGVEVHNAKTKPREEQFNSTYRVVSVLTVLHQDWLNGKEYKCKVSNKGLPSSIEKTISKAKGQPREPQVYTLPPSQEEMTKNQVSLTCLVKGFYPSDIAVEWESNGQPENNYKTTPPVLDSDGSFFLYSRLTVDKSRWQEGNVFSCSVLHEALHNHYTQKSLSLSLGK
notes: 6 entered; also called modified Fc region protein; fusion protein containing NTIG
As for B3, the binding result with Fc gamma receptor IIIa and in the test with Fc gamma receptor I was “no binding” throughout.
